Measurements as given in PMC3406929.

Target: 1JO8-ZM109 (V1/V2 of HIV-1 strain ZM109 in the 1JO8 scaffold) (not stated | HIV-1 strain ZM109)

B1: antibody PG9 (antibody, V domains shown)
VH: QRLVESGGGVVQPGSSLRLSCAASGFDFSRQGMHWVRQAPGQGLEWVAFIKYDGSEKYHADSVWGRLSISRDNSKDTLYLQMNSLRVEDTATYFCVREAGGPDYRNGYNYYDFYDGYYNYHYMDVWGKGTTVTVSS
VL: QSALTQPASVSGSPGQSITISCNGTSNDVGGYESVSWYQQHPGKAPKVVIYDVSKRPSGVSNRFSGSKSGNTASLTISGLQAEDEGDYYCKSLTSTRRRVFGTGTKLTVL
For B1, the fold lower affinity than for wild-type ZM109 gp120 was 3 fold.
